Data from US20110135647.

Tested on: T1, pp1-18 peptide (cell-permeable peptide, RRRRRRRRRRR-G-MEGISNFKTPSKLSEKKK)
T1 sequence: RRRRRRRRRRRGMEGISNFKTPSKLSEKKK

Substance: CDK1-cyclin B1 recombinant protein complex (New England Biolabs)
- phosphorylation of recombinant PBK/TOPK by CDK1-cyclin B1 (in vitro kinase assay with peptide added): the phosphorylation of recombinant PBK/TOPK protein by CDK1-cyclin B1 recombinant proteins was diminished in dose-dependent manner by addition of the pp 1-18 peptide
